Laboratory results from paper PMC7447767, “Molecular mechanism of mitochondrial phosphatidate transfer by Ups1” (Communications Biology, 2020).
One block for each binder: values may come before it.

What was measured:
Settings in all cases: both partners purified
[1] = target: T1, selenomethionine-substituted Ups1 (Saccharomyces cerevisiae, UniProt Q05776 1-175, selenomethionine-substituted); assay: crystal structure; selenomethionine-substituted Ups1/Mdm35, SAD, 2.9 Å; hanging drop, 16 °C, 8% tacsimate pH 5.0, 20% PEG3350, sodium thiocyanate
T1 construct: Ups1, Saccharomyces cerevisiae, full length, selenomethionine in place of methionine; also called SeMet-labeled Ups1; Ups1A; source: selenomethionine-derived Ups1/Mdm35 complex; expression of the SeMet form not described
T1 sequence (looked up): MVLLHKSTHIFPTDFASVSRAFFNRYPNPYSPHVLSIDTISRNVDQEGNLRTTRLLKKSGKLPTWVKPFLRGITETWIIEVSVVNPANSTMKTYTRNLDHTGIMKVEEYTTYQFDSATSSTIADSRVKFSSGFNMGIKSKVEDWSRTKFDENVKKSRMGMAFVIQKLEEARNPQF

[2] = target: T2, Ups1-3E mutant (Saccharomyces cerevisiae, UniProt Q05776 1-175, K140E | R146E | K154E); assay: co-sedimentation; liposome co-sedimentation: 20 μM Ups1/Mdm35 or mutants with DOPC/DOPA = 80/20 liposomes (8 mM), 20 mM Tris-HCl pH 7.5, 150 mM NaCl, 1 mM EDTA, 25 °C, 30 min; 250,000 g; Mdm35 in the pellet taken as complexed with liposome-bound Ups1
T2 construct: Ups1, Saccharomyces cerevisiae, mutant of the full-length wild-type construct; limits not restated for the mutant; also called K140E/R146E/K154E; source: gene synthesized (Beijing SYKM); E. coli Trans B, purified with Mdm35
T2 sequence (looked up): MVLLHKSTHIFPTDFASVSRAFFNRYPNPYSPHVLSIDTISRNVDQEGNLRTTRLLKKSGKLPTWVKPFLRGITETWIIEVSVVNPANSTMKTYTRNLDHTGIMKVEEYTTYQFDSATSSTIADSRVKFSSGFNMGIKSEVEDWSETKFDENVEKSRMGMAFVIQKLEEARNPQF

[3] = target: T3, Ups1 F69L mutant (Saccharomyces cerevisiae, UniProt Q05776 1-175, F69L); assay: as above
T3 construct: Ups1, Saccharomyces cerevisiae, mutant of the full-length wild-type construct; limits not restated for the mutant; source: gene synthesized (Beijing SYKM); E. coli Trans B, purified with Mdm35
T3 sequence (looked up): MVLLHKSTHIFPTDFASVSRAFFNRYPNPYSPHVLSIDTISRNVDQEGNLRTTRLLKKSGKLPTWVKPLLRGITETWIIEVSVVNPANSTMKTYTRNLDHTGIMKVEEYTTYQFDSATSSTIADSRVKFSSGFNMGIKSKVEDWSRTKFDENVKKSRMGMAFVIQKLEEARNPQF

[4] = target: T4, Ups1-2E mutant (Saccharomyces cerevisiae, UniProt Q05776 1-175, K140E | R146E); assay: as above
T4 construct: Ups1, Saccharomyces cerevisiae, mutant of the full-length wild-type construct; limits not restated for the mutant; also called K140E/R146E; source: gene synthesized (Beijing SYKM); E. coli Trans B, purified with Mdm35
T4 sequence (looked up): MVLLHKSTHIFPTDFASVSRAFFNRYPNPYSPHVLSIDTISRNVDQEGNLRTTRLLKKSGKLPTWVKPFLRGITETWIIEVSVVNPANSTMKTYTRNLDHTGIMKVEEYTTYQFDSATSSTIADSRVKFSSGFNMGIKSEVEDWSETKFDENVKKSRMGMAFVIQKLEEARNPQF

[5] = target: T5, Ups1-4E mutant (Saccharomyces cerevisiae, UniProt Q05776 1-175, K140E | R146E | K154E | K166E); assay: as above
T5 construct: Ups1, Saccharomyces cerevisiae, mutant of the full-length wild-type construct; limits not restated for the mutant; also called K140E/R146E/K154E/K166E; source: gene synthesized (Beijing SYKM); E. coli Trans B, purified with Mdm35
T5 sequence (looked up): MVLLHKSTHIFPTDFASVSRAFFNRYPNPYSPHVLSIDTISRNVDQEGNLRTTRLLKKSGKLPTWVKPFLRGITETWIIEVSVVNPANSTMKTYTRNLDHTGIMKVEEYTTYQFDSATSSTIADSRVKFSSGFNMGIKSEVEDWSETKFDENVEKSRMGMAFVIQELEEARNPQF

[6] = target: T6, Ups1 (N-terminal 6x His-tagged full-length Ups1) (Saccharomyces cerevisiae, UniProt Q05776 1-175); assay: SEC; gel filtration of the Ups1/Mdm35 truncation mutants (Supplementary Fig. 8a)
T6 construct: Ups1, Saccharomyces cerevisiae, full length, amplified from genomic DNA; Always handled as the co-expressed complex with Mdm35 or an Mdm35 truncation; also called WT; wild-type Ups1/Mdm35 (Ups1 chain); source: E. coli Trans B, co-expressed with Mdm35 from pETDuet-1, purified (Ni-chelated Sepharose, Superdex 75)
T6 sequence (looked up): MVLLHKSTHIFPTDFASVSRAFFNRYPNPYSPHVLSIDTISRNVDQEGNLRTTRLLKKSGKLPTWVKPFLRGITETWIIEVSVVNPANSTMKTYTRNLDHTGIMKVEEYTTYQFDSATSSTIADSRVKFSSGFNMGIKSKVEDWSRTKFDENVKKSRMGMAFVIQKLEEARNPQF

binding result [1]: binds
B1: selenomethionine-substituted Mdm35 (natural protein, Saccharomyces cerevisiae, UniProt O60200 1-86, looked up)
chain: MGNIMSASFAPECTDLKTKYDSCFNEWYSEKFLKGKSVENECSKQWYAYTTCVNAALVKQGIKPALDEAREEAPFENGGKLKEVDK
modifications: selenomethionine-substituted
notes: Mdm35, Saccharomyces cerevisiae, full length, selenomethionine in place of methionine; also called SeMet-labeled Mdm35; Mdm35A; source: selenomethionine-derived Ups1/Mdm35 complex; expression of the SeMet form not described

binding result [2]: binds
binding result [3]: binds
binding result [4]: binds
binding result [5]: binds
B2: Mdm35 (full-length) (natural protein, Saccharomyces cerevisiae, UniProt O60200 1-86, looked up)
chain: MGNIMSASFAPECTDLKTKYDSCFNEWYSEKFLKGKSVENECSKQWYAYTTCVNAALVKQGIKPALDEAREEAPFENGGKLKEVDK
notes: Mdm35, Saccharomyces cerevisiae, full length, amplified from genomic DNA; Two disulfide bridges (C13-C52 and C23-C42) between the αA and αB helices are seen in the structure; also called WT; wild-type Ups1/Mdm35 (Mdm35 chain); source: E. coli Trans B, co-expressed with His-tagged Ups1 from pETDuet-1, purified (Ni-chelated Sepharose, Superdex 75)

binding result [6]: binds
B3: Mdm35ΔC14 (domain or fragment, Saccharomyces cerevisiae, UniProt O60200 1-72, looked up)
chain: MGNIMSASFAPECTDLKTKYDSCFNEWYSEKFLKGKSVENECSKQWYAYTTCVNAALVKQGIKPALDEAREE
notes: Mdm35, Saccharomyces cerevisiae, lacking the 14 C-terminal residues A73–K86; Limit worked out from the stated deletion A73–K86; also called Ups1/Mdm35ΔC14 (Mdm35 chain); source: gene synthesized (Beijing SYKM); E. coli Trans B, purified with Ups1

binding result [6]: binds
B4: Mdm35ΔC5 (domain or fragment, Saccharomyces cerevisiae, UniProt O60200 1-81, looked up)
chain: MGNIMSASFAPECTDLKTKYDSCFNEWYSEKFLKGKSVENECSKQWYAYTTCVNAALVKQGIKPALDEAREEAPFENGGKL
notes: Mdm35, Saccharomyces cerevisiae, lacking the five C-terminal residues K82–K86; Limit worked out from the stated deletion K82–K86; also called Ups1/Mdm35ΔC5 (Mdm35 chain); source: gene synthesized (Beijing SYKM); E. coli Trans B, purified with Ups1
